Target: FLAG-CRAF (1-648)

B1: human placental GSTP1 (Sigma-Aldrich) (protein)
chain: PPYTVVYFPVRGRCAALRMLLADQGQSWKEEVVTVETWQEGSLKASCLYGQLPKFQDGDLTLYQSNTILRHLGRTLGLYGKDQQEAALVDMVNDGVEDLRCKYISLIYTNYEAGKDDYVKALPGQLKPFETLLSQNQGGKTFIVGDQISFADYNLLDLLLIHEVLAPGCLDAFPLLSAYVGRLSARPKLKAFLASPEYVNLPINGNGKQ
  phosphorylation of MEK1 by FLAG-CRAF (in vitro kinase assay, Western blot for p-MEK1/2): GSTP1 was found to enhance the phosphorylation of MEK1 by FLAG-CRAF (compare lanes 3 and 5 in FIG. 3)
